Measured values published in the MegaScale stability set (Tsuboyama et al. 2023).

B1: EHEE_rd2_0601 (parent)
chain: TYTYKLTDEEASRRAEDEWRNRGYDVRVRNNNGTWEVEVR

Variants of: B1
Experiment: folding stability dG (cDNA display proteolysis); higher = more stable
Settings: PBS, room temperature

Folding stability dG [kcal/mol], by site and new letter:
E38: S 1.23; K 0.392; H 1.02; V 1.61; R 0.772; W 0.84; I 1.77; L 1.28; Y 1.03; D 0.701; Q 1.2; M 1.33; T 1.71; N 0.56; F 1.03; A 0.691; G -0.74
R29: W 1.56; V 1.67; S 1.55; Y 1.74; T 1.86
T34: E 1.28; L 1.48; S 1.28; R 0.865; M 1.58; Q 1.48; H 1.2; D 0.864; G 0.674; N 0.99; Y 1.66; W 1.54; K 0.867; F 1.62; I 2; A 1.17; V 2.01
G33: H -0.011; C 0.74; V -0.925; S 0.025; K -0.238; R -0.712; Y -0.464; M -0.081; D 0.603; Q 0.157; E 0.259; A -0.168; L -0.48; F -0.159; N 0.553; T -0.078; W -0.61
V37: T -0.63; L 1.46; F 0.362; A -0.419; Y -0.753; I 1.75; W -0.973; H 0.241; M 0.715
V39: T -0.975; Y -0.431; H -0.712; L 0.587; C 1.46; M -0.536; W -0.503; A -0.517; F 0.048; I 1.41; R -0.789
N31: S 1.1; A 0.996; R 1.34; H 1.32; P -0.345; Q 1.08; I 1.76; T 1.21; M 1.31; Y 1.4; F 1.42; V 1.83; K 1.16; E 1.12; D 1.06; G 0.546; L 1.51; W 1.02
E36: I 1.93; T 1.27; C 1.26; R -0.245; V 1.58; H 0.826; W 1.83; A 0.137; D 0.292; Y 1.98; M 1.19; Q 0.744; L 1.6; F 1.75; N 0.173; S 0.611
W35: V -0.844; F 0.888; I 0.328; M -0.533; Y 0.894; T -0.644; L -0.206; C -0.208; P -0.671
N32: H 1.07; A 1.12; E 1.15; G 1.39; K 0.989; Y 0.605; D 1.16; S 0.857; M 1.08; Q 1.05; W -0.071; T 0.049; V 0.08; F 0.778; I -0.191; L 0.77; R 0.859
N30: P 0.863; G 0.639; R 1.23; S 1.1; E 1.7; D 1; M 1.4; V 1.43; T 0.81; Q 1.51; F 2.29; L 1.6; W 1.8; K 1.34; A 1.03; H 1.61; Y 2.33; I 1.35
R40: E 0.721; D 0.685; A 1.03; G 0.86; H 1.1; M 1.41; K 1.29; F 1.65; C 1.7; N 0.95; P 0.016; I 1.51; L 1.43
